Test results reported in US20070037156.

System: gelatin

279Gln common variant of MMP-9 (matrix metalloproteinase-9)
MMP-9 activity by zymography (gelatin in the polyacrylamide gel): Activity in both lanes 1 and 2 of FIG. 4 is similar

279Arg rare variant of MMP-9 (matrix metalloproteinase-9)
MMP-9 activity by zymography (gelatin in the polyacrylamide gel): Activity in both lanes 1 and 2 of FIG. 4 is similar
